Measurements: article PMC8184817, “Transmission of light signals from the light-oxygen-voltage core via the hydrophobic region of the β-sheet surface in aureochrome-1” (Scientific Reports, 2021)
Residue numbers refer to the chain shown, from its start.

How the values were obtained:
Settings in all cases: protein: recombinant; chain copies: 2; label: Alexa Fluor647 (EMSA); biotin (QCM); blunt; self-complementary palindrome, 2 copies
[1] = target: T1, PZ L201A/L208A/L212A (triple) (Vaucheria frigida? (VfAUREO1), UniProt A8QW55 113-348, C162S;C182S;L201A;L208A;L212A); assay: EMSA; QCM; dark state; EC50 lower than wtPZ; EMSA: 5% polyacrylamide gel, 25 C, dark or blue light 5 W/m2; QCM: 27 MHz, QCM buffer, 25 C; buffer, salt and pH not given (earlier papers cited); EC50 values (nM, per monomer) only in figures
T1 sequence: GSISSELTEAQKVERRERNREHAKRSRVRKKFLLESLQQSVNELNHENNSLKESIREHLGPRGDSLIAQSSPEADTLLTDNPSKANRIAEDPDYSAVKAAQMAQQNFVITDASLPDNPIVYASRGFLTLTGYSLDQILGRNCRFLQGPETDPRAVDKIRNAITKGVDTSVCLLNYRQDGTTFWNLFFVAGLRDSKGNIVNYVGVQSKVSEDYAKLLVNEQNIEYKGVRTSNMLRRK

PZ L201A = target: T2, PZ L201A (Vaucheria frigida? (VfAUREO1), UniProt A8QW55 113-348, C162S;C182S;L201A); assay: as above
T2 sequence: T1 sequence with A96L, A100L

PZ L208A = target: T3, PZ L208A (Vaucheria frigida? (VfAUREO1), UniProt A8QW55 113-348, C162S;C182S;L208A); assay: as above
T3 sequence: T1 sequence with A89L, A100L

PZ F219V = target: T4, PZ F219V (Vaucheria frigida? (VfAUREO1), UniProt A8QW55 113-348, C162S;C182S;F219V); assay: EMSA; QCM; dark state; low EC50; EMSA: 5% polyacrylamide gel, 25 C, dark or blue light 5 W/m2; QCM: 27 MHz, QCM buffer, 25 C; buffer, salt and pH not given (earlier papers cited); EC50 values (nM, per monomer) only in figures
T4 sequence: T1 sequence with A89L, A96L, A100L, F107V

Measured: binding result

B1: dsApo (dsDNA)
DNA 1: GCTGTCTGACGTCAGACAGC
DNA 2: GCTGTCTGACGTCAGACAGC
binds: all assays above
